Source: PMC9825155, “Cdk1-mediated threonine phosphorylation of Sam68 modulates its RNA binding, alternative splicing activity and cellular functions”

Columns and labels:
Sam68 C-terminal region [1] = target: T1, Sam68 C-terminal region (UniProt Q07666 267-368); test: NMR titration; second estimate (probably Arg side chains); NMR: HSQC at 4 C (NMR buffer not given in material; purification in 50 mM sodium phosphate, 150 mM NaCl, pH 7.6 N-term / pH 7.0 C-term). Pull-down: 20 mM HEPES; details: protein: recombinant; tags: GST removed by PreScission
Sam68 N-terminal region [2] = target: T2, Sam68 N-terminal region (UniProt Q07666 1-96); test: as above; details: protein: recombinant; tags: His-tag removed by TEV
Sam68 C-terminal region [3] = target: T1, Sam68 C-terminal region; test: NMR titration; one of two estimates (backbone or Arg side chains; panel assignment not clear, error suggests eight backbone resonances); text range 30-70 uM; NMR: HSQC at 4 C (NMR buffer not given in material; purification in 50 mM sodium phosphate, 150 mM NaCl, pH 7.6 N-term / pH 7.0 C-term). Pull-down: 20 mM HEPES; details: protein: recombinant; tags: GST removed by PreScission
Sam68 N-terminal region [4] = target: T2, Sam68 N-terminal region; test: NMR titration; one of two estimates (backbone or Arg side chains; panel assignment not clear, error suggests eight backbone resonances); text range 1-10 uM; NMR: HSQC at 4 C (NMR buffer not given in material; purification in 50 mM sodium phosphate, 150 mM NaCl, pH 7.6 N-term / pH 7.0 C-term). Pull-down: 20 mM HEPES; details: protein: recombinant; tags: His-tag removed by TEV

T1 sequence (Q07666 267-368): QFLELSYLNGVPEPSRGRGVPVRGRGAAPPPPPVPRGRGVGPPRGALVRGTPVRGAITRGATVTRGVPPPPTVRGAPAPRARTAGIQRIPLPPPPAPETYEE
T2 sequence (Q07666 1-96): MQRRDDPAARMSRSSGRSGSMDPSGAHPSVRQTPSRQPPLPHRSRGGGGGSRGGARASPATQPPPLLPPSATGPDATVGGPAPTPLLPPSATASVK

## CUGGGUGACACACUAGCUAUAGCAUUAAAAGACCGAGCAAGU (ssRNA) [G8.5 RNA]
Sam68 C-terminal region [1]
  Kd: 68 µM
Sam68 N-terminal region [2]
  Kd: 12 µM
Sam68 C-terminal region [3]
  Kd: 32 ± 5 µM
Sam68 N-terminal region [4]
  Kd: 3.5 ± 1.2 µM
